Results on 4 substances are retold here after patent publication US8580269B2, “Survivin peptides for autoimmune therapies” (Health Research, Inc., priority 2007, dated 2013).

The target in test [1] is T1, HLA-A*0201 (Homo sapiens, UniProt P04439, D140Y/D185E/D98H/E176V/E277Q/G131W/G231S/I119V/I121R/I166T/I218V/L300P/L318F/N151K/N90K/P208A/P217A/Q86G/Q94H/R138H/R169H/T345S). As to the kind of experiment: MHC class I peptide competitive displacement assay. As to conditions: displacement of labeled HPV18-27, FIG. 4A-B. The source says: (§1) FIGS. 4A, 4B and 4C provide a graphical representations of data from an analysis of HLA-A*0201 binding properties of survivin peptides. To obtain the data summarized in FIGS. 4A and 4B, survivin peptide epitopes were used in MHC class I peptide competitive displacement assays. IC50 represents the 50% inhibition concentration of survivin peptide required to displace a fluorescently labeled-known human MHC Class I ligand (HPV18-27). Positive control peptides (Flu & gp100) represent known immunogenic MHC class I ligands. Data represent mean fluorescence±S.E.M. of triplicate samples. FIG. 4C provides a graphical representation of data for specific HLA-A*0201 pentamer binding of wild type and altered survivin peptide epitopes.
(§2) As such, both peptides will bind H-2 Kb (the murine MHC class I counterpart) to a similar extent in mice. […] However, it is in administration to humans that the peptides of the invention are expected to display their enhanced potential, since the alteration of 57C to M alters the wild type peptide so that it contains a sequence that facilitates improved interaction with human MHC I. This is supported by the disparate MHC class I binding characteristics of the wild type and M57 peptides (FIG. 4A-C). As determined by competitive peptide binding assays, SVN53-67/M57 binds HLA-A*0201 approximately 12 fold stronger than the wild type SVN53-67 (FIG. 4A-B). […]

Test [2] concerns the target T1, HLA-A*0201. As to the kind of experiment: survivin/MHC Class I-specific pentamer binding.
Excerpt: as §1, §2

The next test deals with GL261 cells. As to the kind of experiment: intracranial survival study in GL261 murine glioma model. In kind it is in vivo, C57BL/6 mice. As to conditions: peptide loaded DC vaccine, GL261-C57BL/6 glioma model, FIG. 6. The protocol:
FIG. 6 provides a graphical representation of data obtained from intracranial survival studies in a GL261 murine model utilizing altered peptides based on survivin amino acids 53-67. The peptides were administered using peptide loaded dendritic cell (DC) vaccines or as Keyhole Limpet Hemocyanin (KLH) conjugates. To obtain the data presented in FIG. 6, mice were intracranially implanted with 1×10^5 GL261 cells and were treated with survivin peptide DC vaccines. C57BL/6 mice were immunized with SVN57-64 based altered peptides, or OVA258-265 peptide loaded DC2.4 cells as well as a direct subcutaneous injection of 100 ug SVN 53-67/M57-KLH peptide in Incomplete Freund's Adjuvant (IFA) plus 100 ug GM-CSF. Vaccinations began 4 days after tumor cell implantation and were repeated (boosted) every 7 days to simulate a therapeutic setting. Survival was plotted according to Kaplan-Meier methods. Long-term survivors were confirmed tumor-free by high field strength MRI.

A further test concerns the target T2, H2-K^b (Mus musculus, UniProt P01901).
T2 construct: Upregulation of H2-K^b molecules on the surface of murine RMA-S cells; endogenous in cells; host or cells: murine RMA-S cells
T2 sequence (P01901 22-369): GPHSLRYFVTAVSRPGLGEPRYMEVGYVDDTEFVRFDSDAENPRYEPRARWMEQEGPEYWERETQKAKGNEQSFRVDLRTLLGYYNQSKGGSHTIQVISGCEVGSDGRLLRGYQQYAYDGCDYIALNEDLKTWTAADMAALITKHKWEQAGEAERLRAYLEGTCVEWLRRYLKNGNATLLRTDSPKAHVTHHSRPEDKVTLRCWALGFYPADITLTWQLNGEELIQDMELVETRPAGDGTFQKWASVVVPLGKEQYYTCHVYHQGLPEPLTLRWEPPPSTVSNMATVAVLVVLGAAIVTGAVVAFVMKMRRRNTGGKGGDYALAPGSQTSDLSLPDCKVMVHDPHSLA
T2 sequence (P01887 21-119 partner): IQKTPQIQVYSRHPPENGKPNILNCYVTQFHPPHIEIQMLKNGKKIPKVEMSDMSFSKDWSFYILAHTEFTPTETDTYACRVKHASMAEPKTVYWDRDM
Put plainly: MHC class I peptide binding assay, upregulation of H2-K^b on RMA-S cells. The class given is cell-based, murine. Particulars: 100 μM peptide at 37° C., FIG. 3. The procedure: To obtain the data presented in FIG. 3, survivin peptide epitopes were used in conventional MHC class I peptide binding assays. Mean fluorescence in FIG. 3 represents binding of SVN peptides to H2-K^b. Upregulation of H2-K^b molecules on the surface of murine RMA-S cells which are deficient in the expression of surface MHC class I molecules was used to determine actual survivin peptide binding in vitro. Data presented in FIG. 3 represent the binding of 100 μM peptide at 37° C.

As to “DLAQMFFCFKELEGW (SVN53-67/M57 with C to M change)”, the “HLA-A*0201 binding relative to wild type SVN53-67” value in the test with HLA-A*0201 [1] is “approximately 12 fold”. For the same substance, the “increase of MHC I binding relative to the wild type sequence” value in the test with HLA-A*0201 [2] (in situ binding assays for HLA-A*0201, FIG. 2 and FIG. 4C) is “approximately 73 fold”.

Regarding “M F F C F K E L (MFFCFKEL; SVN-57-64/M57 mutant peptide)”, the “survival compared to wild type peptide” value in the test with GL261 cells is “enhances survival over the wild type peptide”.

For “SVN56-64/M57: core peptide, survivin 56-64 with the C>M alteration at position 57 (QMFFCFKEL)”, in the test with HLA-A*0201 [2] (pentamer, FIG. 4C), the “HLA-A*0201 binding relative to wild type SVN56-64” value is given as “approximately 73 fold”.

As to T L G E F L K L [SVN-97], the “binding of SVN peptides to H2-K^b (mean fluorescence)” value at H2-K^b was “less than SVN 57-64 wt, and considerably less than SVN 57-64/M57”.
